Source: publication PMC6757032 (Nature Communications, 2019)
One block for each binder: values may come before it.

What was measured:
[1] = molecular target: T1, full-length rat syntaxin-1A (reconstituted in liposomes, S-liposomes) (rat, UniProt P32851 1-288); test: SEC; S-liposomes (2.29 mM lipid) with full-length syntaxin-1A incubated 1 h with 1.2 µM αSNAP or 1.2 µM Munc18-1, then mixed with 1.2 µM of the other (at once or 12 h at 4 °C); 25 mM HEPES pH 7.4, 150 mM KCl, 1 mM TCEP; liposomes and bound proteins elute near the void volume; conditions: both partners purified
T1 construct: syntaxin-1A, rat, full length; For the NMR experiments the protein was 2H-I-13CH3-labelled (isoleucine delta1 methyl groups); also called Syx WT; liposome-anchored syntaxin-1; source: E. coli BL21(DE3), purified (Ni-NTA, thrombin, Superdex 200 in DPC), reconstituted in liposomes

[2] = molecular target: T1, full-length rat syntaxin-1A …; test: liposome co-floatation; S-liposomes (0.75 mM lipid) with full-length syntaxin-1A pre-incubated 1 h at room temperature with 3 µM αSNAP (C-terminal His6-linker) or 3 µM Munc18-1, then 0-15 µM of the other protein (with or without 2.4 µM NSF) or 3 µM Munc18-1 at 4 °C for various times; Histodenz gradient, top layer by SDS-PAGE and Coomassie blue; conditions: both partners purified

T1 sequence (P32851 whole entry): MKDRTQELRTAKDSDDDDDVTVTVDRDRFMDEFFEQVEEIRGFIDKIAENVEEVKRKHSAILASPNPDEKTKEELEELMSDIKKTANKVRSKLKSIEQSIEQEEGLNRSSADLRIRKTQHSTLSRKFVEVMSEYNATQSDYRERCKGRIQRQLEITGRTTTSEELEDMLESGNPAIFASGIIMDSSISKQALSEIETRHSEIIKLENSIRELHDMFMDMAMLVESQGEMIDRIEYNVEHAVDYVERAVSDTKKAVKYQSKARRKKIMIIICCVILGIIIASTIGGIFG

binding result [1]: binds
B1: full-length Bos Taurus αSNAP (natural protein, UniProt P81125 1-295, looked up)
chain: MDNSGKEAEAMALLAEAERKVKNSQSFFSGLFGGSSKIEEACEIYARAANMFKMAKNWSAAGSAFCQAAHVHLQLQSKHDAATCFVDAGNAFKKADPQEAINCLMRAIEIYTDMGRFTIAAKHHISIAEIYETELVDIEKAIAHYEQSADYYKGEESNSSANKCLLKVAGYAAQLEQYQKAIDIYEQVGTNAMDSPLLKYSAKDYFFKAALCHFCIDMLNAKLAVQKYEELFPAFSDSRECKRIKKLLEAHEEQNVDSYTEAVKEYDSISRLDQWLTTMLLRIKKTIQGDEEDLR
notes: alpha-SNAP, Bos taurus, full length; also called WT αSNAP; source: E. coli BL21(DE3), purified (Glutathione Sepharose, thrombin, Superdex 75)

binding result [2]: binds
B2: αSNAP with a C-terminal His6-linker (…) (natural protein, Bos Taurus, UniProt P81125 1-295, looked up)
chain: B1 chain
notes: Used in all liposome co-floatation assays so that the syntaxin-1 and αSNAP bands separate on the gels; also called αSNAP containing a linker at the C terminus; source: E. coli BL21(DE3), purified as the unmodified construct
